The source of these data is patent publication US11473073B2, “Aminopeptidases for protein hydrolyzates” (DUPONT NUTRITION BIOSCIENCES APS, priority 2015, dated 2022).

Type in all cases: biochemical
Test [1] deals with whey protein isolate (WPI). The experiment in a line: Degree of hydrolysis of WPI with endopeptidases plus PepN. The conditions noted are these: for Degree of hydrolysis: 50° C., 18 hr. The protocol:
Enzyme activities of PepN 1 Lactobacillus helveticus ATCC® 12046, PepN 1 Aspergillus oryzae and from PepN 2 from Aspergillus clavatus (TRI035) were determined according to Stressler, Eisele et al. (2013, infra). PepN 1 from L. helveticus was expressed and purified as described by Stressler, Eisele et al. (2013, infra).
The PepN 1 and 2 aminopeptidases were standardized to the activity range of 2.5-200 nkat*mL^−1. For protein hydrolyses, 1% (w/wWPI) FOODPRO® Alkaline Protease (DuPont, Brabrand, Denmark) and 1% (w/wWPI) FOODPRO® PNL (DuPont, Brabrand, Denmark) were added to the whey protein isolate suspension (WPI; LACPRODAN® 9224, Arla Ingredients, Viby, Denmark) with an initial pH of 7.0. Following the endopeptidases addition, the WPI was mixed and 200 μL were transferred to each well of a 96-well microtiter plate. The hydrolysis was conducted at 50° C. without pH control and terminated after 18 hr by addition of 20 μL of 2 M TCA. Prior to the determination of the DH (Nielsen, Petersen et al., 2001, infra), all samples were filtered 0.22 μm.

Test [2] deals with gluten. Description: Degree of hydrolysis in gluten hydrolyses with and without 185 mM NaCl. The note with it: for Degree of hydrolysis: Gluten, 50° C., 18 hr. Further details: Degree of hydrolysis: unit not given here. The protocol: (§1) Sodium chloride is frequently applied in the food industry to reduce the microbial contamination risk in protein hydrolyses. Pre-hydrolysed 10% (w/w) soy (SUPRO® 760, DuPont, Brabrand, Denmark) and gluten (Sigma-Aldrich, Schnelldorf, Germany) was prepared by addition of 1% (w/wprotein) FOODPRO® Alkaline Protease (DuPont, Brabrand, Denmark) and 1% (w/wprotein) FOODPRO® PNL (DuPont, Brabrand, Denmark). The hydrolyses were performed at 50° C. at pH 7.0 (without pH control) for 18 hr (heat inactivation after 18 hr; 90° C.; 10 min). Subsequently, the hydrolyses were divided in sodium chloride containing (185 mM) and non-salt containing hydrolyses. 150 μL of each pre-hydrolysed protein suspension was combined with differently standardized Aspergillus clavatus PepN 2 as indicated in Table 3. The hydrolyses were conducted at 50° C. without pH control and terminated after 18 hr by addition of 20 μL of 2 M TCA. Prior to the determination of the DH (Nielsen, Petersen et al. 2001, infra), all samples were filtered 0.22 μm.

Test [3] deals with soy. Description: Degree of hydrolysis in soy hydrolyses with and without 185 mM NaCl. The note with it: for Degree of hydrolysis: SOY, 50° C., 18 hr. Further details: Degree of hydrolysis: unit not given here. The protocol: as §1
For test [4], the system named is gluten. The experiment in a line: Glutamic acid liberation in gluten hydrolyses (pH and temperature optimum). On the procedure:
The liberation of glutamic acid is an important quality parameter in vegetable protein hydrolyses such as soy or gluten hydrolyses. The liberated glutamic acid can be perceived as the so-called “umami-flavor”. In order to determine the effect of the initially applied pH in gluten hydrolyses in terms of glutamic acid and glutamine liberation, the initial pH of a gluten hydrolyses was adjusted just after the liquefaction of the gluten after 15-30 min with 1 M HCl. Gluten was treated with Glutaminase (Amano, Japan). In addition, gluten was treated with FoodPro Alkaline Protease, FoodPro PNL as well as PepN 2 (Neosartorya fischeri). After 20 hr, the hydrolysis was terminated employing ultrafiltration (10 kDa cut-off, Sartorius Stedium Biotech, Göttingen, Germany). The permeate was applied for the enzymatic glutamic acid analyses (enzymatic L-glutamic acid analysis kit, Roche, Mannheim, Germany).
In order to determine the effect of the applied temperature during the gluten hydrolyses in terms of glutamic acid and glutamine liberation, the initial pH was adjusted with 1 M HCl to pH 7.0 just after the liquefaction of the gluten suspension after 15-30 min. Gluten was combined with Glutaminase (Amano, Japan). In addition, gluten was combined FOODPRO® Alkaline Protease, FOODPRO® PNL as well as PepN 2 (Neosartorya fischeri). […]

Setting [5] is: 185 mM NaCl, protein concentration 0.2 mg/mL.
[6] abbreviates: 185 mM NaCl, protein concentration 0.3 mg/mL.
[7] abbreviates: 185 mM NaCl, protein concentration 0.4 mg/mL.
Where [8] appears, read: 185 mM NaCl, protein concentration 0.5 mg/mL.
Where [9] appears, read: reference (no salt), protein concentration 0.2 mg/mL.
The mark [10] stands for this setting: reference (no salt), protein concentration 0.3 mg/mL.
Setting [11] is: reference (no salt), protein concentration 0.4 mg/mL.
Setting [12] is: reference (no salt), protein concentration 0.5 mg/mL.

B1: TRI035: fungal aminopeptidase type-2 (pepN_2), NCBI XP_001273779 from Aspergillus clavatus NRRL 1 (protein)
chain: MQTFGAFLVSFLAASGLAAANAPGGPGGHGRKLPVNPKTFPNEIRLKDLLHGSQKLEDFAYAYPERNRVFGGQAHLDTVNYLYRELKKTGYYDVYKQPQVHQWTRADQSLTLGGDSIQASTMTYSPSVNVTAPLSLVSKLGCAEGDYSADVKGKIALVSRGECSFAQKSVLSAKAGAVATIVYNNVDGSLAGTLGGATSELGPYSPIIGITLAAGQDLVARLQAAPTEVSLWIDSKVENRTTYNVIAQTKGGDPNNVVALGGHTDSVENGPGINDDGSGVISNLVVAKALTRYSVKNAVRFCFWTAEEFGLLGSNYYVDNLSPAELAKIRLYLNFDMIASPNYALMIYDGDGSAFNLTGPPGSAQIESLFENYYKSIKQGFVPTAFDGRSDYEGFILKGIPAGGVFTGAESLKTEEQARLFGGQAGVALDANYHAKGDNMTNLNHKAFLINSRATAFAVATYANNLSSIPPRNATVVKRESMKWTKREEPHTHGADTGCFASRVKE
modifications: Synthetic peptide with leader sequence
Consider B1, for which the Degree of hydrolysis in test [1] (PepN dosage 2.5 nkat/mL in stock solution) came out at 15%; in test [1] (PepN dosage 5 nkat/mL in stock solution), 17%; in test [1] (PepN dosage 10 nkat/mL in stock solution) it was 17%; in test [1] (PepN dosage 25 nkat/mL in stock solution), 20%; in test [1] (PepN dosage 50 nkat/mL in stock solution), 24%; in test [1] (PepN dosage 75 nkat/mL in stock solution) it was 26%. Moreover, the Degree of hydrolysis in test [1] (PepN dosage 100 nkat/mL in stock solution) was 35%; in test [1] (PepN dosage 200 nkat/mL in stock solution), 36%; in test [2] (185 mM NaCl, protein concentration 0.1 mg/mL), 14; in test [2] (setting [5]), 15; in test [2] (185 mM NaCl, protein concentration 0.25 mg/mL), 15; in test [2] (setting [6]), 16. Further, the Degree of hydrolysis in test [2] (setting [7]) is 17; in test [2] (setting [8]), 18; in test [2] (reference (no salt), protein concentration 0.1 mg/mL), 14; in test [2] (setting [9]) it was 16; in test [2] (reference (no salt), protein concentration 0.25 mg/mL) it was 17; in test [2] (setting [10]) it was 16. The Degree of hydrolysis in test [2] (setting [11]) came to 17; in test [2] (setting [12]) it was 18; in test [3] (setting [5]), 10; in test [3] (setting [6]), 11; in test [3] (setting [7]), 11; in test [3] (setting [8]), 12. Also, the Degree of hydrolysis in test [3] (setting [9]) is on record as 11; in test [3] (setting [10]), 12; in test [3] (setting [11]), 12; in test [3] (setting [12]) it was 12. The “higher DH than the PepN 1 aminopeptidases” value in test [1] (at the two highest dosages) was “at least 25%”. The “influence of 185 mM NaCl on the determined degree of hydrolysis” value in test [2] (gluten hydrolyses) and in test [3] (soy hydrolyses) was “no influence” each time.

B2: TRI031: fungal aminopeptidase type-2 (pepN_2), NCBI XP_001258675 from Neosartorya fischeri NRRL 181, expressed in Trichoderma reesei (protein)
chain: MQTFGAFLVSFLAASGLAAANGPGWDWKPPVHPKVLPQMIHLWDLMHGAQKLEDFAYAYPERNRVFGGPAHEDTVNYLYRELKKTGYYDVYKQPQVHQWTRADQALTVDGKSYVATTMTYSPSVNVTAPLAVVNNLGCVESDYPADLKGKIALVSRGECPFATKSVLSAKAGAAAALVYNNIEGSMAGTLGGPTSELGPYAPIAGISLADGQALIQMIQAGTVTANLWIDSKVENRTTYNVIAQTKGGDPNNVVALGGHTDSVEAGPGINDDGSGIISNLVVAKALTRFSVKNAVRFCFWTAEEFGLLGSSYYVNSLNATEKAKIRLYLNFDMIASPNYALMIYDGDGSAFNLTGPAGSAQIERLFEDYYKSIRKPFVPTEFNGRSDYEAFILNGIPAGGIFTGAEAIKTEEQAKLFGGQAGVALDANYHAKGDNMTNLNREAFLINSKATAFAVATYANSLDSIPSRNMSTVVKRSQLEQAKKSTPHTHTGGTGCYKDRVEQ
modifications: Synthetic peptide with leader sequence
notes: fungal aminopeptidase type-2 (pepN_2), NCBI XP_001258675 from Neosartorya fischeri NRRL 181, expressed in Trichoderma reesei
For B2, the “temperature at which PepN 2 performed most efficient (glutamic acid liberation)” value in test [4] (gluten hydrolysis 20 h, initial pH 7.0, range 40-60° C., FIG. 3) amounted to 60 °C. Also, the “pH range in which PepN 2 performed more efficient (glutamic acid liberation)” value in test [4] (gluten hydrolysis 20 hr with Glutaminase, FoodPro Alkaline Protease, FoodPro PNL, compared to pH 6.0, FIG. 2) was 7.0-9.0.
